According to patent US6872808 (CORVAS INTERNATIONAL, dated 2005):

How the values were obtained:
rFVIIa/rTF/PLV complex [1] = target: T1, rFVIIa/rTF/PLV complex (human, UniProt P08709 61-466; P13726 33-295); assay: rFVIIa/rTF/PLV amidolytic assay (S-2288), no FXa addition; apparent Ki*
T1 construct: Complex formed in HBSA with CaCl2 on phosphatidyl choline/phosphatidyl serine vesicles; also called fVIIa/TF; FVIIa/TF

human alpha-thrombin = human alpha-thrombin (human, UniProt P00734 328-622); assay: cell-based or functional assay
[2] = target: recombinant tissue plasminogen activator (human, UniProt P00750 36-562); assay: cell-based or functional assay
human pancreatic trypsin = human pancreatic trypsin (human, UniProt P07477 24-247); assay: cell-based or functional assay
[3] = target: human activated protein C (human, UniProt P04070 43-461); assay: cell-based or functional assay
human Factor XIa = human Factor XIa (human, UniProt P03951 19-625); assay: cell-based or functional assay
human factor Xa = human factor Xa (human, UniProt P00742 41-179; P00742 235-488); assay: cell-based or functional assay
human plasmin = human plasmin (human, UniProt P00747 97-810); assay: cell-based or functional assay
[4] = target: bovine pancreatic chymotrypsin (bovine, UniProt P00766 1-245); assay: cell-based or functional assay
human Factor XIIa = target: T2, human Factor XIIa (human, UniProt P00748 20-615); assay: cell-based or functional assay
T2 sequence: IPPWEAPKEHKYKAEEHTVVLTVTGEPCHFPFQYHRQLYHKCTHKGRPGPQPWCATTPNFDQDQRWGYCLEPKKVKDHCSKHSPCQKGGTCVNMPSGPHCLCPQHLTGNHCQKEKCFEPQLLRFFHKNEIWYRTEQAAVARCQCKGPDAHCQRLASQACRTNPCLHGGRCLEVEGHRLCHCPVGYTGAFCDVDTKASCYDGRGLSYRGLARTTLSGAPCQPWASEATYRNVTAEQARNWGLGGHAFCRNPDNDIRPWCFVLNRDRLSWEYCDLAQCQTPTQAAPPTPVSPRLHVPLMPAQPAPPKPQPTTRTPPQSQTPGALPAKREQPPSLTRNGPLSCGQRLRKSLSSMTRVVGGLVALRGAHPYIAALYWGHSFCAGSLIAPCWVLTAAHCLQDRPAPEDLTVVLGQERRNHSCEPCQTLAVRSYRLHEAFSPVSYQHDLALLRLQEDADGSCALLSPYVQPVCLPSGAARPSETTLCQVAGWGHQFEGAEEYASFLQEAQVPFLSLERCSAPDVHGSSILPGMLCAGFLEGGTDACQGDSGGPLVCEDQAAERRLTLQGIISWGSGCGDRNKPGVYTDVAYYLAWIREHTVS

human urokinase = human urokinase (human, UniProt P00749 156-431); assay: cell-based or functional assay
human kallikrein = human kallikrein (human, UniProt P03952 20-638); assay: cell-based or functional assay
rFVIIa/rTF/PLV complex [5] = target: T1, rFVIIa/rTF/PLV complex; assay: rFVIIa/rTF/PLV amidolytic assay (S-2288) plus 2.5 nM EGR-FXa; apparent Ki*

T1 sequence (P08709 61-466 limits assumed, chain 1 of 2): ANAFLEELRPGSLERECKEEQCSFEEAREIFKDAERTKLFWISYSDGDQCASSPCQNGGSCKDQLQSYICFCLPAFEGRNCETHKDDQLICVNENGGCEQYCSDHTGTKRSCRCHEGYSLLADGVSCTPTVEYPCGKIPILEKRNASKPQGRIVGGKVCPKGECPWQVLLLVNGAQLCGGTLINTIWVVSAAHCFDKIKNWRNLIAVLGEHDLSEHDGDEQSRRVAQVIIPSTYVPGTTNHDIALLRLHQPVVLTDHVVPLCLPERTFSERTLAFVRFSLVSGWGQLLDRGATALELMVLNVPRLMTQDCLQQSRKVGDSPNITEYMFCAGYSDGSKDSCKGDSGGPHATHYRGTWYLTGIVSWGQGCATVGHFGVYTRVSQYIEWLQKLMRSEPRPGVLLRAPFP
T1 sequence (P13726 33-295 limits assumed, chain 2 of 2): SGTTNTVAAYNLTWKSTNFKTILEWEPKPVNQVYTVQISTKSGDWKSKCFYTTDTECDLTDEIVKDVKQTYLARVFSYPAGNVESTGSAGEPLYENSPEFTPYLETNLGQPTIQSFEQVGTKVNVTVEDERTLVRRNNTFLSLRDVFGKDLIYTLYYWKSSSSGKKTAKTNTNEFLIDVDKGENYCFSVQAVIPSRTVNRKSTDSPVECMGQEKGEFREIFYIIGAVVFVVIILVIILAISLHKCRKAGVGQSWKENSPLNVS
Chain of human kallikrein (P03952 20-638 limits assumed): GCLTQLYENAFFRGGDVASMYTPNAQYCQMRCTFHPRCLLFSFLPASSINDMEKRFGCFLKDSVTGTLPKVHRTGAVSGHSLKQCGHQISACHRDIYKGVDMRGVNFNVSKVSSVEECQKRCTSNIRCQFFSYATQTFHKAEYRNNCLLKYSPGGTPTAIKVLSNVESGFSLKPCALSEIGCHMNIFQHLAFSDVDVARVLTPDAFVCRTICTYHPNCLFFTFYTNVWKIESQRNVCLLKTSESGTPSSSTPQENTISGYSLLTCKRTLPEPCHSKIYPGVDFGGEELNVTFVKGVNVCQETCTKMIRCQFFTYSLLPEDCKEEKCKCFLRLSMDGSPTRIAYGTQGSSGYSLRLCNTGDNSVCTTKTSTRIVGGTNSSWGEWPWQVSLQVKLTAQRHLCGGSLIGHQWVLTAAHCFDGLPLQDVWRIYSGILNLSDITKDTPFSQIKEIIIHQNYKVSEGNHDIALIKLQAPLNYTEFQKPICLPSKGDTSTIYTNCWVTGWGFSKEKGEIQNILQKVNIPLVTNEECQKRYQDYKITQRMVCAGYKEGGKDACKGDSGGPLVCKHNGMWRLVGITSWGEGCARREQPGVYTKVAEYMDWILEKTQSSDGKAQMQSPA
Chain of human factor Xa (P00742 41-179 limits assumed, chain 1 of 2): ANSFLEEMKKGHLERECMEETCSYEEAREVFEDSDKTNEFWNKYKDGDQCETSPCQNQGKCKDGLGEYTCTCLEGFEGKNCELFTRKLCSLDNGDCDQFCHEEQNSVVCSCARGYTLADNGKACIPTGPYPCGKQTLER
Chain of human factor Xa (P00742 235-488 limits assumed, chain 2 of 2): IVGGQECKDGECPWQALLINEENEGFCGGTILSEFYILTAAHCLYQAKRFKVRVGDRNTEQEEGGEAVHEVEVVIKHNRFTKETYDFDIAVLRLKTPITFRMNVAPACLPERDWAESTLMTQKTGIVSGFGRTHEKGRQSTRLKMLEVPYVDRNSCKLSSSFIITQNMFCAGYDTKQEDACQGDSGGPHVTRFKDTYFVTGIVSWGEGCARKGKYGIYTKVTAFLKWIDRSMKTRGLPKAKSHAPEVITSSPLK
Chain of human plasmin (P00747 97-810 limits assumed): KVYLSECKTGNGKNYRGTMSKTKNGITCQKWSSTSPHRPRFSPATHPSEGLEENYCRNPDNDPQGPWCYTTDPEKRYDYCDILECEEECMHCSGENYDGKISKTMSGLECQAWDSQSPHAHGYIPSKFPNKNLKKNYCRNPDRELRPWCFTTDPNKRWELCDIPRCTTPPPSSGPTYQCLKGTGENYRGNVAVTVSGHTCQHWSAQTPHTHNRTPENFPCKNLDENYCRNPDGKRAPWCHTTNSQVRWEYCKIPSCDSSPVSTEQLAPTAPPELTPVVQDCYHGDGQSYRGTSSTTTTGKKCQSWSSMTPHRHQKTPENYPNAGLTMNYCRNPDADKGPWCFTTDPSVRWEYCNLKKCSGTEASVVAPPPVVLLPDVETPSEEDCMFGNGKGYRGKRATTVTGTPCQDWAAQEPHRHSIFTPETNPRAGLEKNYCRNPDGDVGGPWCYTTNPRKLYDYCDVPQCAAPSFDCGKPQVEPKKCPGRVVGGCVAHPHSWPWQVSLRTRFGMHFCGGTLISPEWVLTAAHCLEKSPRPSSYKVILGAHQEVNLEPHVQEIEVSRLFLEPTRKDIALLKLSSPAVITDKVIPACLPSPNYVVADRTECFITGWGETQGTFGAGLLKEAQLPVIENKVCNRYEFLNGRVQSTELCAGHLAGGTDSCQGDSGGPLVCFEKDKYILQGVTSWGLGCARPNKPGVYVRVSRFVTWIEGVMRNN
Chain of recombinant tissue plasminogen activator (P00750 36-562 limits assumed): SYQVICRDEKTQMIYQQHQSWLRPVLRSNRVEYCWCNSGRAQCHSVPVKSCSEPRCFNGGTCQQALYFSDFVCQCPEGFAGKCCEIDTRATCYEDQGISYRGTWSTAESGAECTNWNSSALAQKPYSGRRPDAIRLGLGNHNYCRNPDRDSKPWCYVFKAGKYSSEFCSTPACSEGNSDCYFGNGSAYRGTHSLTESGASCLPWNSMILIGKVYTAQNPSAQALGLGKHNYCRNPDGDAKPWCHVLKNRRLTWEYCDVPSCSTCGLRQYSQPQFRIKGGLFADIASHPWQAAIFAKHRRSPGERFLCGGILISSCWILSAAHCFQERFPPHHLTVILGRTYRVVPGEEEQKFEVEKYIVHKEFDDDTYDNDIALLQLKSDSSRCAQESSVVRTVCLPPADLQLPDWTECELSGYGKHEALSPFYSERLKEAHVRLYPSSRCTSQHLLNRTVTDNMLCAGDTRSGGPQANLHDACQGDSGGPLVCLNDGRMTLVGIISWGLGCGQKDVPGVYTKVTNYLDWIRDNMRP

B1: recombinant AceNAP4 (other)
chain: KPNNVMTNACGLNEYFAECGNMKECEHRCNEEENEERDEERITACLIRVCFRPGACVCKDGFYRNRTGSCVEEDDCEYENMEFITFAPEVPICGSNERYSDCGNDKQCERKCNEDDYEKGDEACRSHVCERPGACVCEDGFYRNKKGSCVESDDCEYDNMDFITFAPETSR
notes: Two NAP domains
Ki (rFVIIa/rTF/PLV complex [1]): 59.2 nM
% Control Velocity (amidolytic activity; 75 nM NAP, 750 pM enzyme) (human alpha-thrombin): 93%
% Control Velocity (amidolytic activity; 75 nM NAP, 750 pM enzyme) [2]: 108%
% Control Velocity (amidolytic activity; 75 nM NAP, 750 pM enzyme) (human pancreatic trypsin): 98%
% Control Velocity (amidolytic activity; 75 nM NAP, 750 pM enzyme) [3]: 103%
% Control Velocity (amidolytic activity; 75 nM NAP, 750 pM enzyme) (human Factor XIa): 96%
% Control Velocity (amidolytic activity; 75 nM NAP, 750 pM enzyme) (human factor Xa): 76%
% Control Velocity (amidolytic activity; 75 nM NAP, 750 pM enzyme) (human plasmin): 100%
% Control Velocity (amidolytic activity; 75 nM NAP, 750 pM enzyme) [4]: 96%
% Control Velocity (amidolytic activity; 75 nM NAP, 750 pM enzyme) (human Factor XIIa): 102%
% Control Velocity (amidolytic activity; 75 nM NAP, 750 pM enzyme) (human urokinase): 103%
% Control Velocity (amidolytic activity; 75 nM NAP, 750 pM enzyme) (human kallikrein): 32%
Ki (rFVIIa/rTF/PLV complex [5]): 0.378 nM
